Reference: IntAct's records for PubMed 17396155

B1: General receptor for phosphoinositides 1-associated scaffold protein (Rattus norvegicus (Rat)), Q8R4T5 (parent)
chain: MTLRRLRKLQQKEEATAAPDLAGRAPDSEAARAAPTPSGPPAAAAPPGAPGDELYAALEDYHPAELYRALAVSGGTLPRRKGSGFRWKNFTQSPEQQRKVLTLEKGDNQTFGFEIQTYGLHHREEQRVEMVTFVCRVHESSPAQLAGLTPGDTIASVNGLNVEGIRHREIVDIIKASGNVLRLETLYGTSIRKAELEARLQYLKQTLYEKWGEYRSLMVQEQRLVHGLVVKDPSIYDTLESVRSCLYGAGLLPGSLPFGPLLAAPGGARGGSRRAKGDTDDAVYHTCFFGGAEPQALPPPPPPARAPGPGSAETPASVLCPAPRATLSRSASVRCAGPGGGGGGGAPGALWTEAREQALCGAGLRKTKYRSFRRRLLKFIPGLNRSLEEEESQL

Variants of: B1
Conditions: with grm5_rat Grm5, P31424
grm5_rat Grm5, P31424, sequence (P31424 whole entry, looked up): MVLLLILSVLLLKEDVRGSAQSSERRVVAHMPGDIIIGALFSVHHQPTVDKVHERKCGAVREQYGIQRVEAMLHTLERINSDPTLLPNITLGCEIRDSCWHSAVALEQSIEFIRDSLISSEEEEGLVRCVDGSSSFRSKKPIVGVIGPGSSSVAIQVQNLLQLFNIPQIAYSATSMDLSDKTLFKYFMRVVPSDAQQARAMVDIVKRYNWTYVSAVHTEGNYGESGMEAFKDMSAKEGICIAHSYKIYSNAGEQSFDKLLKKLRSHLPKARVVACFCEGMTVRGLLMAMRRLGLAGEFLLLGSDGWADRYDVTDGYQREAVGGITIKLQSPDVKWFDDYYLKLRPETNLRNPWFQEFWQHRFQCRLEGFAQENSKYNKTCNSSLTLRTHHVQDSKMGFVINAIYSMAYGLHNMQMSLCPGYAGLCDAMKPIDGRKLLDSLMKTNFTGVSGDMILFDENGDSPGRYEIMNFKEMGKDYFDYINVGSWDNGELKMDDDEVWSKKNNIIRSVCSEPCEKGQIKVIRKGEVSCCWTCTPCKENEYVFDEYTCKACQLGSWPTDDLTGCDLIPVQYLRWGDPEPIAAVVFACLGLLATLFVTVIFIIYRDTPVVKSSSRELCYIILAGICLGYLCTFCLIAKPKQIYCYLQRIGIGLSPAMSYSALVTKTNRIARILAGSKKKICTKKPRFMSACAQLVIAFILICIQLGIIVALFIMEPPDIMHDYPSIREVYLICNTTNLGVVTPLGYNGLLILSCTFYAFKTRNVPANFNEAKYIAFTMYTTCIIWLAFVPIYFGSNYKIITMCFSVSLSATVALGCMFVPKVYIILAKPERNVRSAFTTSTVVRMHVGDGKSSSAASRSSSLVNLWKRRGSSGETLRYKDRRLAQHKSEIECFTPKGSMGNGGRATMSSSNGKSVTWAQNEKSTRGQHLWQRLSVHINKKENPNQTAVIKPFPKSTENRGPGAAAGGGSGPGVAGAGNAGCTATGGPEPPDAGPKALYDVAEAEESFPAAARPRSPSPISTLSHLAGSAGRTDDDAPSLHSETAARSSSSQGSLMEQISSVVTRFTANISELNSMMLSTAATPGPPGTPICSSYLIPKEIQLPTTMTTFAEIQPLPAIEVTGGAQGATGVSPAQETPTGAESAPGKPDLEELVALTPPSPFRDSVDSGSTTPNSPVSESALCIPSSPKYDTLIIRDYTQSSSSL

| effect of a mutation on the interaction | Variant |
| --- | --- |
| decreasing interaction | E114K |
